Patent US10941182 (Amgen, dated 2021)
Starred links: 1 amine or outer side, 2 acyl side, 3 side chain; linkers in the order of their positions; H or OH if unused. Non-standard residues stand in square brackets, D forms with d. *: point of attachment. AC4Abu = α-carboxy-4-aminobutyric acid, O=C(C(CCN[*:1])C(=O)[*:3])[*:2]; dBip = N[C@H](Cc1ccc(-c2ccccc2)cc1)C(=O)O; Oic = O=C(O)[C@@H]1C[C@@H]2CCCC[C@@H]2N1; Phe(4-Cl) = N[C@@H](Cc1ccc(Cl)cc1)C(=O)O; dPhe(4-Cl) = N[C@H](Cc1ccc(Cl)cc1)C(=O)O; Phe(4-I) = N[C@@H](Cc1ccc(I)cc1)C(=O)O; γGlu = O=C(O)[C@H](CCC(=O)[*:2])N[*:1]; NMeR = CN[C@@H](CCCNC(=N)N)C(=O)O; Tridecanoyl = CCCCCCCCCCCCC(=O)*; hArg = N=C(N)NCCCC[C@H](N)C(=O)O; Cha = N[C@@H](CC1CCCCC1)C(=O)O; NMeL = CN[C@@H](CC(C)C)C(=O)O; αMeL = CC(C)C[C@](C)(N)C(=O)O; αMeP = C[C@@]1(C(=O)O)CCCN1; Nle = CCCC[C@H](N)C(=O)O; Deg = CCC(N)(CC)C(=O)O; AEEA = NCCOCCOCC(=O)O; BLeu = β-leucine

T1: human APJ receptor (human, UniProt P35414 1-380)
T1 sequence (looked up): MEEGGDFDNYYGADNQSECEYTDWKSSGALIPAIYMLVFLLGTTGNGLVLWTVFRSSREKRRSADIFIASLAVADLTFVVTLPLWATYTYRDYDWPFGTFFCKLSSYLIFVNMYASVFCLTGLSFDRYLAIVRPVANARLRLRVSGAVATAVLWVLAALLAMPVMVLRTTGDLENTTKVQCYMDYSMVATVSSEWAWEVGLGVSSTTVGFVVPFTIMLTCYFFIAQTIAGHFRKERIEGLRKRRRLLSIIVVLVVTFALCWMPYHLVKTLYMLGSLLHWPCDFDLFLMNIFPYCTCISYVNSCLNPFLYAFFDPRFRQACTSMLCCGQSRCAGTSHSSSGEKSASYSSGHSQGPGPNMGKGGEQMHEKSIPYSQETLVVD

T2: rat APJ receptor (rat, UniProt Q9JHG3 1-377)
T2 sequence (looked up): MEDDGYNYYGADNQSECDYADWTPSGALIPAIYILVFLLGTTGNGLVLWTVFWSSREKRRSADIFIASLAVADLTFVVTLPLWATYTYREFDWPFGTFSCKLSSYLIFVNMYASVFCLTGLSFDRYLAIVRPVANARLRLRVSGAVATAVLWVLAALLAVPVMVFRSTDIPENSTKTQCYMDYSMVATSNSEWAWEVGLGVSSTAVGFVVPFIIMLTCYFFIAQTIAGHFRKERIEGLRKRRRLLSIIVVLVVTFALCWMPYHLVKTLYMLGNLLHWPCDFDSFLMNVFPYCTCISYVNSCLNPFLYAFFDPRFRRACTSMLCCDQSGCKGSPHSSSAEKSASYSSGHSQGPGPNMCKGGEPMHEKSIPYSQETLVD

B1: SEQ ID NO: 333 (peptide)
peptide: Tridecanoyl-[γGlu][AEEA][AEEA][hArg][Nle]Q[hArg]P[dR][NMeL]AAKG[Oic][Phe(4-I)]P[dBip]-OH
SMILES: CCCCCCCCCCCCC(=O)N[C@@H](CCC(=O)NCCOCCOCC(=O)NCCOCCOCC(=O)N[C@@H](CCCCNC(=N)N)C(=O)N[C@@H](CCCC)C(=O)N[C@@H](CCC(N)=O)C(=O)N[C@@H](CCCCNC(=N)N)C(=O)N1CCC[C@H]1C(=O)N[C@H](CCCNC(=N)N)C(=O)N(C)[C@@H](CC(C)C)C(=O)N[C@@H](C)C(=O)N[C@@H](C)C(=O)N[C@@H](CCCCN)C(=O)NCC(=O)N1[C@H](C(=O)N[C@@H](Cc2ccc(I)cc2)C(=O)N2CCC[C@H]2C(=O)N[C@H](Cc2ccc(-c3ccccc3)cc2)C(=O)O)C[C@@H]2CCCC[C@@H]21)C(=O)O
B2: SEQ ID NO: 558 (peptide)
peptide: Tridecanoyl-[AC4Abu][AEEA][AEEA][Deg][hArg]P[dR][Cha]SHKG[Oic][Nle]P[Phe(4-Cl)]-OH
SMILES: CCCCCCCCCCCCC(=O)NCCC(C(=O)O)C(=O)NCCOCCOCC(=O)NCCOCCOCC(=O)NC(CC)(CC)C(=O)N[C@@H](CCCCNC(=N)N)C(=O)N1CCC[C@H]1C(=O)N[C@H](CCCNC(=N)N)C(=O)N[C@@H](CC1CCCCC1)C(=O)N[C@@H](CO)C(=O)N[C@@H](Cc1c[nH]cn1)C(=O)N[C@@H](CCCCN)C(=O)NCC(=O)N1[C@H](C(=O)N[C@@H](CCCC)C(=O)N2CCC[C@H]2C(=O)N[C@@H](Cc2ccc(Cl)cc2)C(=O)O)C[C@@H]2CCCC[C@@H]21
B3: SEQ ID NO: 315 (peptide)
peptide: Tridecanoyl-[γGlu][AEEA][AEEA][hArg][Nle]Q[hArg]P[dR][NMeL]SHKG[Oic][Phe(4-I)]P[dBip]-OH
SMILES: CCCCCCCCCCCCC(=O)N[C@@H](CCC(=O)NCCOCCOCC(=O)NCCOCCOCC(=O)N[C@@H](CCCCNC(=N)N)C(=O)N[C@@H](CCCC)C(=O)N[C@@H](CCC(N)=O)C(=O)N[C@@H](CCCCNC(=N)N)C(=O)N1CCC[C@H]1C(=O)N[C@H](CCCNC(=N)N)C(=O)N(C)[C@@H](CC(C)C)C(=O)N[C@@H](CO)C(=O)N[C@@H](Cc1c[nH]cn1)C(=O)N[C@@H](CCCCN)C(=O)NCC(=O)N1[C@H](C(=O)N[C@@H](Cc2ccc(I)cc2)C(=O)N2CCC[C@H]2C(=O)N[C@H](Cc2ccc(-c3ccccc3)cc2)C(=O)O)C[C@@H]2CCCC[C@@H]21)C(=O)O
B4: SEQ ID NO: 327 (peptide)
peptide: Tridecanoyl-[γGlu][AEEA][AEEA][hArg][Nle]Q[hArg]P[dR][NMeL]SAKG[Oic][Phe(4-I)]P[dBip]-OH
SMILES: CCCCCCCCCCCCC(=O)N[C@@H](CCC(=O)NCCOCCOCC(=O)NCCOCCOCC(=O)N[C@@H](CCCCNC(=N)N)C(=O)N[C@@H](CCCC)C(=O)N[C@@H](CCC(N)=O)C(=O)N[C@@H](CCCCNC(=N)N)C(=O)N1CCC[C@H]1C(=O)N[C@H](CCCNC(=N)N)C(=O)N(C)[C@@H](CC(C)C)C(=O)N[C@@H](CO)C(=O)N[C@@H](C)C(=O)N[C@@H](CCCCN)C(=O)NCC(=O)N1[C@H](C(=O)N[C@@H](Cc2ccc(I)cc2)C(=O)N2CCC[C@H]2C(=O)N[C@H](Cc2ccc(-c3ccccc3)cc2)C(=O)O)C[C@@H]2CCCC[C@@H]21)C(=O)O
B5: SEQ ID NO: 443 (peptide)
peptide: Tridecanoyl-[γGlu][AEEA][AEEA][Deg]RP[NMeR][Cha]SHKG[Oic][Nle]P[Phe(4-Cl)]-OH
SMILES: CCCCCCCCCCCCC(=O)N[C@@H](CCC(=O)NCCOCCOCC(=O)NCCOCCOCC(=O)NC(CC)(CC)C(=O)N[C@@H](CCCNC(=N)N)C(=O)N1CCC[C@H]1C(=O)N(C)[C@@H](CCCNC(=N)N)C(=O)N[C@@H](CC1CCCCC1)C(=O)N[C@@H](CO)C(=O)N[C@@H](Cc1c[nH]cn1)C(=O)N[C@@H](CCCCN)C(=O)NCC(=O)N1[C@H](C(=O)N[C@@H](CCCC)C(=O)N2CCC[C@H]2C(=O)N[C@@H](Cc2ccc(Cl)cc2)C(=O)O)C[C@@H]2CCCC[C@@H]21)C(=O)O
B6: SEQ ID NO: 321 (peptide)
peptide: Tridecanoyl-[γGlu][AEEA][AEEA][hArg][Nle]Q[hArg]P[dR][NMeL]AHKG[Oic][Phe(4-I)]P[dBip]-OH
SMILES: CCCCCCCCCCCCC(=O)N[C@@H](CCC(=O)NCCOCCOCC(=O)NCCOCCOCC(=O)N[C@@H](CCCCNC(=N)N)C(=O)N[C@@H](CCCC)C(=O)N[C@@H](CCC(N)=O)C(=O)N[C@@H](CCCCNC(=N)N)C(=O)N1CCC[C@H]1C(=O)N[C@H](CCCNC(=N)N)C(=O)N(C)[C@@H](CC(C)C)C(=O)N[C@@H](C)C(=O)N[C@@H](Cc1c[nH]cn1)C(=O)N[C@@H](CCCCN)C(=O)NCC(=O)N1[C@H](C(=O)N[C@@H](Cc2ccc(I)cc2)C(=O)N2CCC[C@H]2C(=O)N[C@H](Cc2ccc(-c3ccccc3)cc2)C(=O)O)C[C@@H]2CCCC[C@@H]21)C(=O)O

Experiments:
human APJ receptor = molecular target: T1, human APJ receptor; assay: cell-based or functional assay
rat APJ receptor = molecular target: T2, rat APJ receptor; assay: cell-based or functional assay

Row | Binder | EC50 Human APJ Receptor (human APJ receptor) [nM] | EC50 Rat APJ Receptor (rat APJ receptor) [nM]
1 | B1 | 36.1 | 46.6
2 | Tridecanoyl-[γGlu][AEEA][AEEA][BLeu]RP[hArg][BLeu]SHKG[Oic][Nle]P[Phe(4-Cl)]-OH [SEQ ID NO: 395] | 0.741 | 1.02
3 | Tridecanoyl-[γGlu][AEEA][AEEA][BLeu]RP[NMeR][Cha]SHKG[Oic][Nle]P[Phe(4-Cl)]-OH [SEQ ID NO: 393] | 0.769 | 2.67
4 | Tridecanoyl-[γGlu][AEEA][AEEA][BLeu]RP[NMeR][αMeL]SHKG[Oic][Nle]P[Phe(4-Cl)]-OH [SEQ ID NO: 374] | 0.305 | 0.503
5 | Tridecanoyl-[γGlu][AEEA][AEEA][BLeu][hArg]P[NMeR][Cha]SHKG[Oic][Nle]P[dPhe(4-Cl)]-OH [SEQ ID NO: 298] | 32.8 | 24.9
6 | Tridecanoyl-[AC4Abu][AEEA][AEEA][BLeu]R[αMeP][hArg][αMeL]SHKG[Oic][Nle][αMeP][Phe(4-Cl)]-OH [SEQ ID NO: 552] | 1.96 | 4.88
7 | B2 | 3.4 | 12.5
8 | Tridecanoyl-[γGlu][AEEA][AEEA][BLeu]RP[NMeR][αMeL]SHKG[Oic][Nle][αMeP][Phe(4-Cl)]-OH [SEQ ID NO: 388] | 0.706 | 0.727
9 | B3 | 3.04 | 4.9
10 | B4 | 14.4 | 14.8
11 | Tridecanoyl-[γGlu][AEEA][AEEA][BLeu]RP[NMeR][BLeu]SHKG[Oic][Nle]P[Phe(4-Cl)]-OH [SEQ ID NO: 394] | 0.297 | 1.5
12 | B5 | 2.31 | 1.67
13 | B6 | 17.9 | 29.1
